Source: the DeepSol protein solubility set

Assay: soluble on expression in E. coli; label from the status in PepcDB or PDB records

| Sequence | soluble on expression in E. coli |
| --- | --- |
| GPGSMKKTVAAAPPKSPAPAKSKISVTRTGVNTTYPMPPPMPEKNYAPFFAEGCQTIAASKASMPPVQPASPLPPMHSAPPTASVVSNSIPPSSPATAPGERSPAVAARSVPTRFSPATVPRHHMNPNATEFMPGRRNGPDGGLEALPTSTADMELAKTPAGAAAAAVHAPSLPGAVRRSLQNSPIIQPSRLSVKSASEIEAISKNSALNAAAAAYVPQRTLARVVLTQPSPLALAPSEDPAKNNIEMMLDDLWCLFYLPTTLGENIKEEDYNPTLVFRVDSILTFWRVVNNIAAPSELQLSTLYLFRDGIDPKWEDPANRDGGIVKVKATAAQVDEAWELLLCRTIGDSWSPSVRETVNGVVLKVRERAYWLELWVTKNSSALQKDLAELWHPILGASFATTYLTHAMMQERSHAAAALAAEKQKKNRRRY | soluble |
| MGSDKIHHHHHHMAFNQRTVVMIGPGEHYVTAKNEVIKTLLGSCVAVCLYDPKAQVIGMNHFLLAADRRKFTHFLDSRAGYYGVHAMEILINAMLKRGAQRKYLQSKIFGGANVLSLCADNILNHYDIGGMNIDFVRHFLQRERIPIISEDIGGHCGRVIYFDPTDYSVYRSLIEHKYEEIASLQDEEYRYFNQASEDIHSSGVPVVIWSD | not soluble |
| MGSDKIHHHHHHMLCSVIQRQTREVSNTMSLDSYYLGFDLSTQQLKCLAINQDLKIVHSETVEFEKDLPHYHTKKGVYIHGDTIECPVAMWLEALDLVLSKYREAKFPLNKVMAVSGSCQQHGSVYWSSQAESLLEQLNKKPEKDLLHYVSSVAFARQTAPNWQDHSTAKQCQEFEECIGGPEKMAQLTGSRAHFRFTGPQILKIAQLEPEAYEKTKTISLVSNFLTSILVGHLVELEEADACGMNLYDIRERKFSDELLHLIDSSSKDKTIRQKLMRAPMKNLIAGTICKYFIEKYGFNTNCKVSPMTGDNLATICSLPLRKNDVLVSLGTSTTVLLVTDKYHPSPNYHLFIHPTLPNHYMGMICYCNGSLARERIRDELNKERENNYEKTNDWTLFNQAVLDDSESSENELGVYFPLGEIVPSVKAINKRVIFNPKTGMIEREVAKFKDKRHDAKNIVESQALSCRVRISPLLSDSNASSQQRLNEDTIVKFDYDESPLRDYLNKRPERTFFVGGASKNDAIVKKFAQVIGATKGNFRLETPNSCALGGCYKAMWSLLYDSNKIAVPFDKFLNDNFPWHVMESISDVDNENWDRYNSKIVPLSELEKTLI | not soluble |
| MSDAHVLKSRLEWGEPAFTILDVRDRSTYNDGHIMGAMAMPIEDLVDRASSSLEKSRDIYVYGAGDEQTSQAVNLLRSAGFEHVSELKGGLAAWKAIGGPTEGIIESRLEHHHHHH | not soluble |
| MAEGERQPPPDSSEEAPPATQNFIIPKKEIHTVPDMGKWKRSQAYADYIGFILTLNEGVKGKKLTFEYRVSEAIEKLVALLNTLDRWIDETPPVDQPSRFGNKAYRTWYAKLDEEAENLVATVVPTHLAAAVPEVAVYLKESVGNSTRIDYGTGHEAAFAAFLCCLCKIGVLRVDDQIAIVFKVFNRYLEVMRKLQKTYRMEPAGSQGVWGLDDFQFLPFIWGSSQLIDHPYLEPRHFVDEKAVNENHKDYMFLECILFITEMKTGPFAEHSNQLWNISAVPSWSKVNQGLIRMYKAECLEKFPVIQHFKFGSLLPIHPVTSG | soluble |
| GANTTETPVKDVELDGRWDDPIRSAATNCPITVFTDGYLLTLKNASPDRDMTIRITDMAKGGVVYENDIPEVQSAYITISIANFPAEEYKLEITGTPSGHLTGYFTKE | soluble |
| MGSDKIHHHHHHMTAKTFELGPGYTISRVIRGGWQLAGGHGAIDRSQAVTDLIATFDAGIWTYDCADIYTGVEELIGAARLRLASERGLDVAAKMKVHTKLVPDLERLATISRDYIRGIVEQSLRRLKTERLDLVQFHWWDYDQPRYVEAMGWLDELRREGKVRNLGTTNFDTPRLAEILAAGIPLVSQQLQYSVLDQRPAHSLAELAAKNGVSFLCYGSVAGGFLSDKWLGVAEPATPLENRSLVKYKLIIDDFGGWDLFQQLLQALKAVGDRHGVDIATIASAWVLKQPRVAAVIVGARNQAHALANARIMDVALDADDRAKIAAVIAQSQGPLGDVYTLERDRHGRHGSIMHYNLNAGRT | not soluble |
| MGSDKIHHHHHHMTSSPTSTQESSTSWYLLLQQLIDGESLSRSQAAELMQGWLSEAVPPELSGAILTALNFKGVSADELTGMAEVLQSQSKMGTGENYSQLPITNSPFSIIDTCGTGGDGSSTFNISTAVAFVAAAYGVPVAKHGNRSASSLTGSADVLEALGVNLGASPEKVQAALQEVGITFLFAPGWHPALKAVATLRRTLRIRTVFNLLGPLVNPLRPTGQVVGLFTPKLLTTVAQALDNLGKQKAIVLHGRERLDEAGLGDLTDLAVLSDGELQLTTINPQEVGVTPAPIGALRGGDVQENAEILKAVLQGKGTQAQQDAVALNAALALQVAGAVPLLDHAQGVSVAKEILQTGTAWAKLAQLVYFLGN | soluble |
| MSLPLSKTLVQKLQQAGMAIANNQPQIKFTPLSISDEKGKVALDLNIALVPNPKFDLMHSGLYKQFKDFSINFDVNKETAISLLSKFVPENQKQDLVYRMDELIAEGEANGIIVNTDKTVTLTLALENNDLKLNGKPIPEEQLKVVLFILVMGGFGREGHHHHHH | soluble |
| MAGDPMNEEQRKASSVDVLAERDKKAEKDYSKYFEHVYQPPNLKEAKKRGKQEVRYNRDFQIDEKYRGMGNERTFLIKTYGCQMNAHDTEVIAGILEALGYQATTDINTADVILINTCAIRENAENKVFSEIGNLKHLKKERPDILIGVCGCMSQEESVVNKILKSYQNVDMIFGTHNIHHLPEILEEAYLSKAMVVEVWSKEGDVIENLPKVREGNIKAWVNIMYGCDKFCTYCIVPFTRGKERSRRPEDIIDEVRELAREGYKEITLLGQNVNSYGKDLQDIEYDLGDLLQAISKIAIPRVRFTTSHPWDFTDHMIDVISEGGNIVPHIHLPVQSGNNAVLKIMGRKYTRESYLDLVKRIKDRIPNVALTTDIIVGYPNESEEQFEETLTLYDEVGFEHAYTYLYSQRDGTPAAKMKDNVPLNVKKERLQRLNKKVGHYSQIAMSKYEGQTVTVLCEGSSKKDDQVLAGYTDKNKLVNFKAPKEMIGKLVEVRIDEAKQYSLNGSFVKEVEPEMVIQLEHHHHHH | soluble |
| GMPKANLEIIRSTYEGSASSNAKHLAEALSEKVEWTEAEGFPYGGTYIGVEAIMENVFSRLGSEWNDYKASVNMYHEVSGKDVIIAEGMYSGVYKDTGKSFEAEFVHVWQLENGKIVKFKQYVDSHLVREAMKS | soluble |
| MKHVPIRMCVACRRRRPKGELLRILVTEEGFVIDPSGKRPGRGAYVCPDSPECRSEKRLRRFAGAKARALAEALAAYLGGEDGQGKDLPAG | soluble |
| METYTVKLGSDKGLLVFEPAKLTIKPGDTVEFLNNKVPPHNVVFDAALNPAKSADLAKSLSHKQLLMSPGQSTSTTFPADAPAGEYTFYCEPHRGAGMVGKITVAG | soluble |
| MIVQKELVAIYDYEVPVPEDPFSFRLEIHKCSELFTGSVYRLERFRLRPTFHQRDREDADPLINDALIYIRDECIDERKLRGESPETVIAIFNRELQNIFNQEIE | soluble |
| MLVDHLLARGATDVRALTNHPDKAQLPDSVTVVEGYLRRLGSLPAAFEGVDSLYLAPTPDTAPDALALAKQAGVRHVVDLSGPHDGHWGDVARAVEASGIEWTHLWPGEFMENAGILAPQITAGDTVREPYPTAANAPIAMDDIAEVAAVALLESGHVGASYELTGPETITRAELVRELGAALGRNIEYRQVSLDEAVDVLTPAMGEYARWY | not soluble |
| MKIVTTVQEMQHITKELRASGKSIGFVPTMGYLHEGHATLLRKAREENEIVVLSVFVNPLQFGPNEDLDRYPRDIDRDENVAKENGVDYLFYPSVEEMYPAEQTTTVEVVKRTDVLCGKQRPGHFAGVATVLMKLFNITLPTRAYFGMKDAQQVAVIEGFVADFNIPVIIVPVDIVREEDGLAKSSRNVYLSQKERKEAPHLYRSLCMAKERIEAGERNAEIITTLVKEYIETYTKGTVDYADLYAYPSLQVVDQIEGRIILAIAVKFENVRLIDNITLTVK | not soluble |
| MFILHRSMLPCGANQMDLIQENGQPRYGRFSQLPTAIGLDRYIYKSPYGKIEKGWRKKLKYKKFKFCSIQHQHYSIGLAIADIGWAGHGFFYVYDHAKHQVQEWNAIHAFARKTCVDEQPLFNQSYFYKSPFELDIQHANGVRYLRVTKYGEILLSARIFCAGTEPLSLCSPNGINGWTYTQKKTTLGVEGYFTTKQGEMIEFNETSLASLDDTCGFLRPETAWFWLSSSFWTDHGDRIGINLASGVNESFGNENCIWINGVLHSIADVLFERQDKNHWVIRSLDHKLELHVETGWRRYESINLRMVGSQFSQWQAKLTGKILLDENKTVVLNQEYALLEQHYAKW | not soluble |
| MASQEFQGFLDSSLLNEEDCRQMIYRSEREHDARMVGVNVDQHFTSQYRKVLTTWMFCVCKDLRQDNNVFPLAVALLDELFLSTRIDRENYQSTAAVALHIAGKVRAYMPIKATQLAYLCGGATTADKLLTLEVKSLDTLSWVADRCLSTDLICYILHIMHAPREDYLNIYNLCRPKIFCALCDGRSAMKRPVLITLACMHLTMNQKYDYYENRIDGVCKSLYITKEELHQCCDLVDIAIVSFDENYFKINA | soluble |
| MEMTNAQRLILSNQYKMMTMLDPTNAERYRRLQTIIERGYGLQMRELDREFGELTEETCRTIIDIMEMYHALHVSWTNLKDTQAIDERRVTFLGFDAATEARYLGYVRFMVNIEGRYTHFDAGTHGFNAQTPMWEKYQRMLNVWHACPRQYHLSANEINQIINA | not soluble |
| MGSDKIHHHHHHMKSLGRHLVAEFYECDREVLDNVQLIEQEMKQAAYESGATIVTSTFHRFLPYGVSGVVVISESHLTIHTWPEYGYAAIDLFTCGEDVDPWKAFEHLKKALKAKRVHVVEHERGRYDEIGIPEDSPHKAAV | soluble |
| MGSDKIHHHHHHVPGLLPDVDREGLLEYSVVYTDRSLNHMSQLFQGVMRDISNSLKKVYNAKSAVVVPGSGTFGMEAVARQFATNRKCLVIRNGWFSYRWTQIFDMGGIPSESIVLKARPVEEGRQAAYAPPPIEEVVAAIRENKPDLVFAPHVETASGIMLPDAYLRAVADAVHAVDGMFVLDCIASGTVWVDMKASGVDVLISAPQKGWSASPCCGLVMLGELARERIEGTTSTSFACDLRKWLQIMEAYENGGFAYHATMPTDGLATLRDVMKETEAYGFDKVRAEQVELGRRVRSVLADRGFRSVAAEGFEAPGVVVSYTDDDGIRSGKKFADAGLQIAAGVPLQCDEPQDFKTFRIGLFGLDKLHDVEGAVGRFVKGLGSIL | not soluble |
| MGSDKIHHHHHHMVEVLERLGCETVLPEKQICCGQPTYNSGYSKDSMKTFKNEIDALLSIDADYIVGPSGSCVFMIKEYKDIFKDDPEYGPKAAEIDSKIYEFTQFIYRVLKVVDCGAELDAKVTVHRSCHMTRLIGERTAPFVLLDHVKDIERVPLKNVQLCCGFGGTFSAKRPELSVEMVDEKVKNIVDTDAEILIGTEESCLMNIVGRMNRLGYKIKAMHIAEVLNHNVDINRIKYIKDTDHVVVPANGEGVF | not soluble |
| MKKFCLSYSSGKDCLLAMDRLVQAGNQPVALVTTLSDEINRSWFHGIPISVLEAAAEALDLPLVISHNNETNYTEKVVEALQETKKLGAETVCFGDIDIEQNGAWDRQVALSAGLEPQLPLWQENREALVKEFLAKGYTAIIKTVSKEAGIPIKFLGEPLNETFITYLKEHQLDICGENGEYHTLVIDGPLFKKRLNYYTSGIYESPYAYSLIIDA | not soluble |
| DVQLQESGGGLVQAGGSLRLSCAASGATGSTYDMGWFRQAPGKERESVAAINWGSAGTYYASSVRGRFTISRDNAKKTVYLQMNSLKPEDTAVYTCGAGRIGRSVFNLRRESWVTWWGQGTQVTVSS | soluble |
